The target of test [1] is rat luteinizing hormone/chorionic gonadotropin receptor (rLH/CGR) (rat) (UniProt P16235).
Test [2] addresses rat follicle-stimulating hormone receptor (rFSHR) (rat) (UniProt P20395).
Chain of UniProt P20395 (P20395 18-692): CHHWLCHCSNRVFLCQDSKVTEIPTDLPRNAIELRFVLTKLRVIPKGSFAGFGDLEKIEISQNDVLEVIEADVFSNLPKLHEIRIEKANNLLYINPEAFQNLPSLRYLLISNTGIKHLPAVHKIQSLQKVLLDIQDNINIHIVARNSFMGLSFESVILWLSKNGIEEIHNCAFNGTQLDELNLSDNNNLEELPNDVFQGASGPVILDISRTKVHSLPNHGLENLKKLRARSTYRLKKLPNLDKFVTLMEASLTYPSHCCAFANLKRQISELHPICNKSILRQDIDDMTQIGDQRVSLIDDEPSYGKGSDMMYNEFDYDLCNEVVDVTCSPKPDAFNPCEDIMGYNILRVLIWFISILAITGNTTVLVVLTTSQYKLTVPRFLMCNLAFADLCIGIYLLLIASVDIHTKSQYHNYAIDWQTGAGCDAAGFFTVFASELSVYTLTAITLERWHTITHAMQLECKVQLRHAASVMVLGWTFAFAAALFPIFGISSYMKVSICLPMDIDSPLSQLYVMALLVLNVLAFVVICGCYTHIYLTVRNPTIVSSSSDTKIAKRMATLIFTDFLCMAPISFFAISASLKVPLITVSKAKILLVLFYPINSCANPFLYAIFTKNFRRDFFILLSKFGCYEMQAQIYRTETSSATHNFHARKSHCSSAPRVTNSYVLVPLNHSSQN

Chain of UniProt P16235 (P16235 27-700): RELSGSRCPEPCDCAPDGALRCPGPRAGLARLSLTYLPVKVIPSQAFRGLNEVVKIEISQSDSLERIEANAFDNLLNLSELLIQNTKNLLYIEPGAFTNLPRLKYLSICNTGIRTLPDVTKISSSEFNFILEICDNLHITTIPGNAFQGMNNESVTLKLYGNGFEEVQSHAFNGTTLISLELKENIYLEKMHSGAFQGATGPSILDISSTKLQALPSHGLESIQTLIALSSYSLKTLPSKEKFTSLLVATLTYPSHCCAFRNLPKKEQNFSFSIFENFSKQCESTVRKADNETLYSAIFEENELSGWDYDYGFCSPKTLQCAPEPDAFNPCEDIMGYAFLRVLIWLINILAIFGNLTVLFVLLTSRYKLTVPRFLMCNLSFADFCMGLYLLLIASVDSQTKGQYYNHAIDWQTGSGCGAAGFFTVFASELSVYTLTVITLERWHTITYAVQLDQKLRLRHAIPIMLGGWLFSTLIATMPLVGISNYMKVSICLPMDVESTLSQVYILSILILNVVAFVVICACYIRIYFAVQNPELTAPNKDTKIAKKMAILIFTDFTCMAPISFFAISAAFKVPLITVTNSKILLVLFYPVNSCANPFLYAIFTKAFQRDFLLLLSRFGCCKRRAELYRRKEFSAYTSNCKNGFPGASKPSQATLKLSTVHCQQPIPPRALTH

Turning to “rec-eCGβV102G;F103P/α (from UniProt P08751 21-169; P01220 25-120) (ligand)”, the EC50 of cAMP response (HTRF) in CHO-K1 cells expressing rLH/CGR in test [1] was found to be 0.016 ng/mL. The substance also yielded an EC50 of cAMP response (HTRF) in CHO-K1 cells expressing rFSHR in test [2] of 1.75 ng/mL.

For “rec-eCGβV102G;R104K/α (from UniProt P08751 21-169; P01220 25-120) (ligand)”, the EC50 of cAMP response (HTRF) in CHO-K1 cells expressing rLH/CGR in test [1] was 0.038 ng/mL. In test [2], this substance returned an EC50 of cAMP response (HTRF) in CHO-K1 cells expressing rFSHR of 5.45 ng/mL.

For the substance “rec-eCGβF103P;R104K/α (from UniProt P08751 21-169; P01220 25-120) (ligand)”, the EC50 of cAMP response (HTRF) in CHO-K1 cells expressing rLH/CGR in test [1] turned out to be 0.037 ng/mL. Further, in test [2], the EC50 of cAMP response (HTRF) in CHO-K1 cells expressing rFSHR was 6.4 ng/mL.

On to “rec-eCGβR104K/α (from UniProt P08751 21-169; P01220 25-120) (ligand)”, for which the EC50 of cAMP response (HTRF) in CHO-K1 cells expressing rLH/CGR in test [1] turned out to be 0.033 ng/mL. The substance also displayed an EC50 of cAMP response (HTRF) in CHO-K1 cells expressing rFSHR in test [2] of 0.98 ng/mL.

In the case of “rec-eCGβV102G;F103P;R104K/α (from UniProt P08751 21-169; P01220 25-120) (ligand)”, the EC50 of cAMP response (HTRF) in CHO-K1 cells expressing rLH/CGR in test [1] was determined as 0.013 ng/mL. The same substance yielded an EC50 of cAMP response (HTRF) in CHO-K1 cells expressing rFSHR in test [2] of 2.86 ng/mL.

Substance “single-chain recombinant equine chorionic gonadotropin β/α, wild type (rec-eCGβ/α-wt) (from UniProt P08751 21-169; P01220 25-120) (ligand)” displayed an EC50 of cAMP response (HTRF) in CHO-K1 cells expressing rFSHR in test [2] of 0.16 ng/mL.

In turn, “rec-eCGβF103P/α (from UniProt P08751 21-169; P01220 25-120) (ligand)” yielded an EC50 of cAMP response (HTRF) in CHO-K1 cells expressing rLH/CGR in test [1] of 0.018 ng/mL. In test [2], this substance yielded an EC50 of cAMP response (HTRF) in CHO-K1 cells expressing rFSHR of 0.99 ng/mL.

“rec-eCGβV102G/α (from UniProt P08751 21-169; P01220 25-120) (ligand)” had an EC50 of cAMP response (HTRF) in CHO-K1 cells expressing rLH/CGR in test [1] of 0.015 ng/mL. This substance also had an EC50 of cAMP response (HTRF) in CHO-K1 cells expressing rFSHR in test [2] of 0.79 ng/mL.

Values taken from article PMC8253215.
